{
  "source": "patent US20250289899A1",
  "about": "(Genmab, published 2025)",
  "key": {"[1]": {"target": "T1, cynomolgus monkey CD27, full length, on cells (cynomolgus T cells, transfected HEK293F cells) (cynomolgus monkey (Macaca fascicularis), UniProt P26842 20-260 (human entry))", "T1 construct": "also called cyno CD27", "T1 chain": "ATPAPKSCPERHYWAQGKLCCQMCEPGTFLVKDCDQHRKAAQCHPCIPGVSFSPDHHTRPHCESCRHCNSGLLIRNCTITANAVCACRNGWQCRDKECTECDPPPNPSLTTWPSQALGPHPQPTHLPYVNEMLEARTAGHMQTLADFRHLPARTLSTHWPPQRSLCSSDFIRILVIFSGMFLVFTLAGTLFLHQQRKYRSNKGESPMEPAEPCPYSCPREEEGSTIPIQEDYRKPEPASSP", "assay": "flow cytometry on T cells in cynomolgus PBMC (endogenous CD27), PE goat anti-human IgG, median MFI PE", "description": "(§1) Non-binding control antibody IgG1-b12-FEAR was used as negative control antibody. *N.B. IgG1-CD27-A, -B, -C, -D and -E carried mutations F405L-L234F-L235E-D265A in the IgG Fc domain, which are functionally irrelevant in the context of this experiment.\n(§2) Cells were seeded in 96-Wells plates (100,000 cells per well; Greiner Bio-one, Cat #650180) for sequential incubations, with washing steps in between with FACS buffer, consisting of PBS (Lonza, Cat #BE17-517Q)+1% BSA (Roche, Cat #10735086001)+0.02% Sodium Azide (Bio-World, Cat #41920044-3). The following incubations were applied: antibody concentration series (0.0001-10 μg/mL final concentration) for 30 min at 4° C.; live/dead marker FVS510 (BD, Cat #564406, diluted 1:1,000 in PBS) for 20 min at RT; PE-labeled polyclonal goat anti-human IgG (Jackson Immuno Research, Cat #109-116-098, diluted 1:500) for 30 min at 4° C.; and anti-CD3 antibody for T-cell identification (anti-human CD3: BD, Cat #555335, diluted 1:10; anti-cyno CD3: Miltenyi, Cat #130-091-998, diluted 1:10) for 30 min at 4° C. All samples were analyzed on a FACSCelesta flow cytometer (BD) and FlowJo software. Data were processed and visualized using GraphPad Prism."}, "[2]": {"target": "T2, human CD27, full length, on cells (T cells, transfected HEK293F cells, Daudi cells, NFκB-luc2/CD27 Jurkat … (human, UniProt P26842 20-240))", "T2 construct": "Residues 1-19 are stated to be the signal peptide; also called TNFRSF7", "T2 sequence": "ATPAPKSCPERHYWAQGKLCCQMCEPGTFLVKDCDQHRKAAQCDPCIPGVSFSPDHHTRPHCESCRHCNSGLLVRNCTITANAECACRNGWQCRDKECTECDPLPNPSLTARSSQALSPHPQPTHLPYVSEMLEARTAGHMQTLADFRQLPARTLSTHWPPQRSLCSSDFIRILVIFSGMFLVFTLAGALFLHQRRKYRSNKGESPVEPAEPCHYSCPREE", "assay": "flow cytometry on HEK293F cells transfected with human CD27, PE goat anti-human IgG, median MFI PE"}, "[3]": {"target": "T1, cynomolgus monkey CD27, full length, on …", "assay": "flow cytometry on HEK293F cells transfected with cynomolgus CD27, PE goat anti-human IgG, median MFI PE", "description": "as §1, §2"}, "[4]": {"target": "T2, human CD27, full length, on cells (T …)", "assay": "flow cytometry on T cells in human PBMC (endogenous CD27), PE goat anti-human IgG, median MFI PE", "description": "as §1, §2"}, "[5]": {"target": "T3, human C1q (from normal human serum) (human, UniProt P02745 23-245; P02746 28-253; P02747 29-245)", "T3 construct": "20% normal human serum was the source of C1q", "T3 sequence (P02745 23-245 limits assumed, chain 1 of 3)": "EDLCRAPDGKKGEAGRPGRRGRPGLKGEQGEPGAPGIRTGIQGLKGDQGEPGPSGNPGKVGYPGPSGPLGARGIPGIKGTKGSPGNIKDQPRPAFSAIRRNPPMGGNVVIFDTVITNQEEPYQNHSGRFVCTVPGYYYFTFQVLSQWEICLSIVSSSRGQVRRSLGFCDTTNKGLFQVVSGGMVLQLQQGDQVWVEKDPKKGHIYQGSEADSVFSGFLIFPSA", "T3 sequence (P02746 28-253 limits assumed, chain 2 of 3)": "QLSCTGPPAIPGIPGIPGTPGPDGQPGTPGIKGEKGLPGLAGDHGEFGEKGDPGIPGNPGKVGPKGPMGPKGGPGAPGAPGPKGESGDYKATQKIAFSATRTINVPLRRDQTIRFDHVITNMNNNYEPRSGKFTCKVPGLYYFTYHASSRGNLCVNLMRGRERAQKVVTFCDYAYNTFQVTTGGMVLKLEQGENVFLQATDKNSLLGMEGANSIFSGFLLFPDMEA", "T3 sequence (P02747 29-245 limits assumed, chain 3 of 3)": "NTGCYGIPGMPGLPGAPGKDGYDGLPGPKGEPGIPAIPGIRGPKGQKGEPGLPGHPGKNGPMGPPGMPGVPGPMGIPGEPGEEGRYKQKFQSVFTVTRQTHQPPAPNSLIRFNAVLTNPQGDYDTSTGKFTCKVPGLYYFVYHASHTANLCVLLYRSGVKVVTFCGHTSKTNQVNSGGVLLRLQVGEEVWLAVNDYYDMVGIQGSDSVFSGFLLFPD", "assay": "flow cytometry, C1q (20% normal human serum) on human T cells pre-incubated with the antibody, FITC rabbit anti-human C1q, median MFI FITC; antibody concentration varied", "description": "The P329R mutation was previously described to reduce interaction of IgG1 antibodies with C1q and FcgR (Overdijk et al, Molecular Cancer Therapeutics 2020). The effect of the P329R mutation on C1q binding of IgG1-CD27-A comprising the E345R mutation was tested in cellular C1q binding assays in vitro using human healthy donor T cells. Anti-HIV gp120 antibody IgG1-b12-F405L was used as non-binding isotype control antibody (ctrl). […] T cells (2×10⁶ cells/well) were pre-incubated in polystyrene 96-well round-bottom plates with antibody dilution series (8× five-fold dilution starting at 15 μg/mL final assay concentration) for 15 min at 37° C. to allow the antibodies to bind to the T cells. Then, cells were cooled on ice, supplemented with NHS as a source of human C1q (20% NHS final assay concentration) and incubated on ice for 45 min. Cells were subsequently incubated on ice with FITC-labeled Rabbit anti-human C1q antibody (DAKO, Cat #F0254; 20 μg/mL) for 30 min and resuspended in FACS buffer with TO-PRO-3 (ThermoFisher, Cat #T3605; 1:5,000 dilution). C1q binding was determined by flow cytometry measuring the FITC signal on live cells."}},
  "data": [
    {"binder": "IgG1-CD27-A carrying F405L-L234F-L235E-D265A in the IgG Fc domain (antibody) heavy: QVQLMQSGSELKKPGASVKVSCRASGYTFTTYAMNWVRQAPGQGPEWMGWINTNTGNPTYAQGFTGRFVFSLDTTVTTTYLQISSLKAEDTAVYFCAREAGSFDYWGQGTLVTVSSASTKGPSVFPLAPSSKSTSGGTAALGCLVKDYFPEPVTVSWNSGALTSGVHTFPAVLQSSGLYSLSSVVTVPSSSLGTQTYICNVNHKPSNTKVDKRVEPKSCDKTHTCPPCPAPEFEGGPSVFLFPPKPKDTLMISRTPEVTCVVVAVSHEDPEVKFNWYVDGVEVHNAKTKPREEQYNSTYRVVSVLTVLHQDWLNGKEYKCKVSNKALPAPIEKTISKAKGQPREPQVYTLPPSREEMTKNQVSLTCLVKGFYPSDIAVEWESNGQPENNYKTTPPVLDSDGSFLLYSKLTVDKSRWQQGNVFSCSVMHEALHNHYTQKSLSLSPGK light: QSALTQPASVSGSPGQSITISCTGTSSDVYYYNYVSWYQQHPGRAPKLVIYDVSNRPSGVSNRFSGSKSGNTASLTISGLRAEDEADYYCSSYTVNRVWVFGGGTKLTVLGQPKAAPSVTLFPPSSEELQANKATLVCLISDFYPGAVTVAWKADSSPVKAGVETTTPSKQSNNKYAASSYLSLTPEQWKSHRSYSCQVTHEGSTVEKTVAPTECS", "values": [
      {"measurement": "EC50 (read off the curve)", "setting": "[1]", "result": "~0.04", "unit": "µg/mL"},
      {"measurement": "EC50 (read off the curve)", "setting": "[2]", "result": "~0.1", "unit": "µg/mL"},
      {"measurement": "EC50 (read off the curve)", "setting": "[3]", "result": "~0.06", "unit": "µg/mL"},
      {"measurement": "EC50 (read off the curve)", "setting": "[4]", "result": "~0.04", "unit": "µg/mL"}
    ]},
    {"binder": "IgG1-CD27-A (wild-type IgG1 Fc) (antibody, also called WT IgG1-CD27-A; IgG-CD27-A) heavy: not shown light: QSALTQPASVSGSPGQSITISCTGTSSDVYYYNYVSWYQQHPGRAPKLVIYDVSNRPSGVSNRFSGSKSGNTASLTISGLRAEDEADYYCSSYTVNRVWVFGGGTKLTVLGQPKAAPSVTLFPPSSEELQANKATLVCLISDFYPGAVTVAWKADSSPVKAGVETTTPSKQSNNKYAASSYLSLTPEQWKSHRSYSCQVTHEGSTVEKTVAPTECS", "values": [
      {"measurement": "binding result", "setting": "[5]", "result": "no binding (tested: 15 µg/mL)"}
    ]},
    {"binder": "IgG1-CD27-A-E430G (antibody) heavy: not shown light: QSALTQPASVSGSPGQSITISCTGTSSDVYYYNYVSWYQQHPGRAPKLVIYDVSNRPSGVSNRFSGSKSGNTASLTISGLRAEDEADYYCSSYTVNRVWVFGGGTKLTVLGQPKAAPSVTLFPPSSEELQANKATLVCLISDFYPGAVTVAWKADSSPVKAGVETTTPSKQSNNKYAASSYLSLTPEQWKSHRSYSCQVTHEGSTVEKTVAPTECS", "values": [
      {"measurement": "EC50 (read off the curve)", "setting": "[5]", "result": "~0.03", "unit": "µg/mL"}
    ]},
    {"binder": "IgG1-CD27-A-E345R (antibody, also called IgG-CD27-A-E345R) heavy: not shown light: QSALTQPASVSGSPGQSITISCTGTSSDVYYYNYVSWYQQHPGRAPKLVIYDVSNRPSGVSNRFSGSKSGNTASLTISGLRAEDEADYYCSSYTVNRVWVFGGGTKLTVLGQPKAAPSVTLFPPSSEELQANKATLVCLISDFYPGAVTVAWKADSSPVKAGVETTTPSKQSNNKYAASSYLSLTPEQWKSHRSYSCQVTHEGSTVEKTVAPTECS", "values": [
      {"measurement": "binding result", "setting": "[5]", "result": "binds"}
    ]}
  ]
}
